Laboratory results: PMC9969229

What was measured:
[1] = biological target: glycosylated prostate specific antigen (human) (UniProt P07288); assay: BLI; […] (0.4 μg mL^-1) […]
[2] = biological target: neuraminidase-treated glycosylated human PSA (human) (UniProt P07288); assay: BLI; […] (15 μg mL^-1) […], in buffer

Question: With Sambucus nigra lectin (natural protein) as the substance, how does the maximum signal to noise (PSA against no PSA) [1] read?
Answer: 12.8

Question: What about the signal to noise (PSA against no PSA) [1] of the same substance?
Answer: 1.5

Question: What about the reduction in signal against fresh glycosylated PSA [2] of the same substance?
Answer: 50%
